Test results taken from publication PMC9012491, “Engineering the Single Domain Antibodies Targeting Receptor Binding Motifs Within the Domain III of West Nile Virus Envelope Glycoprotein” (Frontiers in Microbiology, 2022).

T1: synthetic analog of the receptor binding motif DIII-1^G299–K307 (West Nile virus; residues agree with …, biotinylated C-terminal lysine)
T1 construct: numbers count on: the E glycoprotein; rDIII is of strain goshawk (GenBank DQ116961.1); also called DIII-1^L299–K307 (so printed in the discussion); source: synthetic peptide (Caslo)
T1 chain: GTTYGVCSK

T2: synthetic analog of the receptor binding motif DIII-2^V371–R388 (West Nile virus; residues agree with …, biotinylated C-terminal lysine)
T2 construct: numbers count on: the E glycoprotein; rDIII is of strain goshawk (GenBank DQ116961.1); source: synthetic peptide (Caslo)
T2 chain: VLIELEPPFGDSYIVVGR


Assays:
[1] = target: T1, synthetic analog of the receptor …; assay: far-Western, overlay or dot blot; dot blot: purified sdAbs (1 μl) spotted on nitrocellulose, blocked with 5% BSA; biotinylated peptide 1 μg/ml in phosphate buffer pH 7.0, 1 h; streptavidin-HRP; settings: both partners purified
[2] = target: T2, synthetic analog of the receptor …; assay: as above; settings: both partners purified

Binder	binding result [1]	binding result [2]
sdAbA6 (VHH) VHH: EVQVVASGGGLVQPGGSLSLSCAASGFTFSGYDMTWVRQAPGKGLEWVSSINSGGGNTNYADSVKGRFTISRDNAKNTLYLQMNSLKPEDTALYYCARRNDYGSLLAALDAWGQGTLVTVS	binds	–
sdAbA10 (VHH, also called sdAbA9) VHH: QVQVLASGGGLVQPGGSLRLSCAASGFTFSSNAMSWVRQAPGKGLEWVSTINSGGSRTTYTDSVKGRFTISRDNAKNTLYLQMNSLKPDDTAVYYCAKARVDLNLHGWGTSYEYDYWGQGTLVTVS	–	binds
sdAbA1 (VHH) VHH: QVQLLASGPGLVKPSQTLSLTCTVSGGAITSGYYGWSWIRQPPGKELEWMGVIASSGSTYYSPSLKSRTSISRDTSKSQFTLQLSSVTPEDTAVYYCARDAIQGPNFLYDYWGQGTLVTVS	binds	–
